Laboratory results published in paper doi:10.1101/2023.01.10.523476 (bioRxiv, 2023).
Where two headings read alike, the source gives them in different places.

B1: GspDβ secretin (ETEC H10407 strain) with hexahistidine tag (natural protein)
chain: EEATFTANFKDTDLKSFIETVGANLNKTIIMGPGVQGKVSIRTMTPLNERQYYQLFLNLLEAQGYAVVPMENDVLKVVKSSAAKVEPLPLVGEGSDNYAGDEMVTKVVPVRNVSVRELAPILRQMIDSAGSGNVVNYDPSNVIMLTGRASVVERLTEVIQRVDHAGNRTEEVIPLDNASASEIARVLESLTKNSGENQPATLKSQIVADERTNSVIVSGDPATRDKMRRLIRRLDSEMERSGNSQVFYLKYSKAEDLVDVLKQVSGTLTAAKEEAEGTVGSGREIVSIAASKHSNALIVTAPQDIMQSLQSVIEQLDIRRAQVHVEALIVEVAEGSNINFGVQWASKDAGLMQFANGTQIPIGTLGAAISQAKPQKGSTVISENGATTINPDTNGDLSTLAQLLSGFSGTAVGVVKGDWMALVQAVKNDSSSNVLSTPSITTLDNQEAFFMVGQDVPVLTGSTVGSNNSNPFNTVERKKVGIMLKVTPQINEGNAVQMVIEQEVSKVEGQTSLDVVFGERKLKTTVLANDGELIVLGGLMDDQAGESVAKVPLLGDIPLIGNLFKSTADKKEKRNLMVFIRPTILRDGMAADGVSQRKYNYMRAEQIYRDEQGLSLMPHTAQPVLPAQNQALPPEVRAFLNAGRTR
B2: GspDα secretin (E. coli K12 strain) (natural protein)
chain: ENEQYGANFNNADIRQFVEIVGQHLGKTILIDPSVQGTISVRSNDTFSQQEYYQFFLSILDLYGYSVITLDNGFLKVVRSANVKTSPGMIADSSRPGVGDELVTRIVPLENVPARDLAPLLRQMMDAGSVGNVVHYEPSNVLILTGRASTINKLIEVIKRVDVIGTEKQQIIHLEYASAEDLAEILNQLISESHGKSQMPALLSAKIVADKRTNSLIISGPEKARQRITSLLKSLDVEESEEGNTRVYYLKYAKATNLVEVLTGVSEKLKDEKGNARKPSSSGAMDNVAITADEQTNSLVITADQSVQEKLATVIARLDIRRAQVLVEAIIVEVQDGNGLNLGVQWANKNVGAQQFTNTGLPIFNAAQGVADYKKNGGITSANPAWDMFSAYNGMAAGFFNGDWGVLLTALASNNKNDILATPSIVTLDNKLASFNVGQDVPVLSGSQTTSGDNVFNTVERKTVGTKLKVTPQVNEGDAVLLEIEQEVSSVDSSSNSTLGPTFNTRTIQNAVLVKTGETVVLGGLLDDFSKEQVSKVPLLGDIPLVGQLFRYTSTERAKRNLMVFIRPTIIRDDDVYRSLSKEKYTRYRQEQQQRIDGKSKALVGSEDLPVLDENTFNSHAPAPSSR

Key:
cryo-EM structure [1] = molecular target: the molecule itself; assay: cryo-EM structure
cryo-EM structure [2] = molecular target: the molecule itself; assay: cryo-EM structure; remark: listed apart in the source

| Protein | stoichiometry N (cryo-EM structure [1]) | stoichiometry N (cryo-EM structure [2]) |
| --- | --- | --- |
| B1 | 15 |  |
| B2 |  | 15 |
